In publication PMC11440629 (Advanced Functional Materials, 2023):

Target: the molecule itself
Assay: release from hydrogel

B1: NT2RepCT (other)
chain: MSHTTPWTNPGLAENFMNSFMQGLSSMPGFTASQLDDMSTIAQSMVQSIQSLAAQGRTSPNKLQALNMAFASSMAEIAASEEGGGSLSTKTSSIASAMSNAFLQTTGVVNQPFINEITQLVSMFAQAGMNDVSAGNSGRGQGGYGQGSGGNAAAAAAAAAAAAAAAGQGGQGGYGRQSQGAGSAAAAAAAAAAAAAAGSGQGGYGGQGQGGYGQSGNSVTSGGYGYGTSAAAGAGVAAGSYAGAVNRLSSAEAASRVSSNIAAIASGGASALPSVISNIYSGVVASGVSSNEALIQALLELLSALVHVLSSASIGNVSSVGVDSTLNVVQDSVGQYVG
- binding result: binds
